The subject of data set [1] is LacI-Gly60+3 (Escherichia coli). The data set can be described thus: EMSA. Conditions: 5 mM Mg2+; EMSA: 20 mM Tris-HCl pH 8.0, 200 mM NaCl, 0.5 mM EDTA, 1 mM DTT, 5 mM MgCl2, 5% glycerol, 0.1 nM DNA, 22 C, 60 min; nicking assays at 37 C. Background: Mobility shift assays separate free from complexed probe on a gel.
The test system of data set [2] is LacI (lac repressor), wild type (Escherichia coli). The data set is described as follows: EMSA. Conditions: no IPTG; 5 mM Mg2+; EMSA: 20 mM Tris-HCl pH 8.0, 200 mM NaCl, 0.5 mM EDTA, 1 mM DTT, 5 mM MgCl2, 5% glycerol, 0.1 nM DNA, 22 C, 60 min; nicking assays at 37 C.

lac O2 fragment had a Ka in data set [1] of 6.2e+08 M⁻¹.

In the case of lac O1 fragment, the figures for the Ka in data set [2] and in data set [1] were 1.2e+10 M⁻¹ and 1e+09 M⁻¹, respectively.

For the substance lac Os fragment, in data set [1], the Ka amounted to 2.4e+09 M⁻¹.

For the origin of these results see paper PMC4725879.
